From PMC3514286 (PLoS ONE, 2012)
Substitutions are numbered along the chain they refer to. Numbers in names are those of the source.

T1: GroES (E. coli, UniProt P0A6F9 1-97)
T1 sequence: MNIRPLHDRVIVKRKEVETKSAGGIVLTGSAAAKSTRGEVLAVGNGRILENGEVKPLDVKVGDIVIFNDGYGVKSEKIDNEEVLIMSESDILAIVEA

T2: GroES L27A mutant (E. coli, UniProt P0A6F9 1-97, L27A)
T2 sequence: T1 sequence with L27A

B1: human mitochondrial Hsp60, wild type (natural protein, UniProt P10809 27-573, looked up)
chain: AKDVKFGADARALMLQGVDLLADAVAVTMGPKGRTVIIEQSWGSPKVTKDGVTVAKSIDLKDKYKNIGAKLVQDVANNTNEEAGDGTTTATVLARSIAKEGFEKISKGANPVEIRRGVMLAVDAVIAELKKQSKPVTTPEEIAQVATISANGDKEIGNIISDAMKKVGRKGVITVKDGKTLNDELEIIEGMKFDRGYISPYFINTSKGQKCEFQDAYVLLSEKKISSIQSIVPALEIANAHRKPLVIIAEDVDGEALSTLVLNRLKVGLQVVAVKAPGFGDNRKNQLKDMAIATGGAVFGEEGLTLNLEDVQPHDLGKVGEVIVTKDDAMLLKGKGDKAQIEKRIQEIIEQLDVTTSEYEKEKLNERLAKLSDGVAVLKVGGTSDVEVNEKKDRVTDALNATRAAVEEGIVLGGGCALLRCIPALDSLTPANEDQKIGIEIIKRTLKIPAMTIAKNAGVEGSLIVEKIMQSSSEVGYDAMAGDFVNMVEKGIIDPTKVVRTALLDAAGVASLLTTAEVVVTEIPKEEKDPGMGAMGGMGGGMGGGMF
B2: human mitochondrial Hsp60 E321K mutant (natural protein, UniProt P10809 27-573, looked up)
chain: B1 chain with E321K
notes: human mitochondrial Hsp60 with E321K, isolated from an error-prone PCR library; also called E321K mHsp60; source: expressed in bacteria, purified as oligomers
B3: human mitochondrial Hsp60 R264K/E358K double mutant (natural protein, UniProt P10809 27-573, looked up)
chain: B1 chain with R264K, E358K
notes: human mitochondrial Hsp60 with R264K and E358K, isolated from an error-prone PCR library; also called R264K/E358K mHsp60; source: expressed in bacteria, purified as oligomers

What was measured:
[1] = target: mHsp10 L33A mutant (human, UniProt P61604 1-102, L33A); assay: cell-based or functional assay
[2] = target: T1, GroES; assay: cell-based or functional assay
[3] = target: T2, GroES L27A mutant; assay: cell-based or functional assay
[4] = target: T1, GroES; assay: SPR; ProteOn XPR36; GroES or mHsp10 immobilised by amine coupling on a GLC chip; six concentrations of each mHsp60 variant injected; 20 mM Na-HEPES pH 7.5, 100 mM KCl, 10 mM MgCl2, 0.005% Tween, 2 mM ATP; apparent constants from equilibrium analysis; settings: both partners purified
[5] = target: mitochondrial Hsp10, hexa-histidine-tagged (human, UniProt P61604 1-102); assay: cell-based or functional assay
mitochondrial Hsp10, hexa-histidine-tagged, sequence (P61604 whole entry): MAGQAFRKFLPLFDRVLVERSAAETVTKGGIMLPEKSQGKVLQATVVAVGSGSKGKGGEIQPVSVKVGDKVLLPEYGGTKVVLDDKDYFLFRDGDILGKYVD

mHsp10 L33A mutant, sequence (P61604 whole entry L33A): as the sequence (P61604 whole entry) above, with L33A counted along it

Binder	inhibition of the chaperonin's steady-state ATPase activity by co-chaperonin (2:1 co-chaperonin:chaperonin) [1] [%]	inhibition of the chaperonin's steady-state ATPase activity by co-chaperonin (2:1 co-chaperonin:chaperonin) [2] [%]	inhibition of the chaperonin's steady-state ATPase activity by co-chaperonin (2:1 co-chaperonin:chaperonin) [3] [%]	KA ratio (apparent KA relative to that of mHsp60 and mHsp10) [4] [ratio]	inhibition of the chaperonin's steady-state ATPase activity by co-chaperonin (2:1 co-chaperonin:chaperonin) [5] [%]
B1	0	0	0		
B2	26	30	0	1.43	
B3	40	47	0		48
